Experiment: protease stability score; higher = more stable; yeast display proteolysis, trypsin and chymotrypsin;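 further: log10 excess protease needed over predicted unfolded state with 0 meaning unfolded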

Going from “DDEAKDVVDTFMHAVRFGDPDKVDRNIDKDVRLRYGDTEVHGREDAKTYIEDLRDESRVKINEYSATAHNGKADLDADMSFTRNGQPRKRKMKVTAEVHNGHIKELDVQWRP” to “DDEAKEHVEDFIRALKDNNPDEVDEYIDKDAKVHVGDTIYHGREEVRRDVERKKRHLRFDYEDVKIEVHGEKVVAHMKVEYQHNGRPDKARVILDVRFHNGRVRSLHIQEQK”, the protease stability score rises from -0.313 to -0.095.

First: DDEALRVYQEVLEAWKHGDEDRLRQLLDPNVSIDVGDKDVHGREDYVTKMVRKARELSFHFEHVHVDHDGDKATIQMVYVIDQNGEPDRTANNVKVDVQNGKIKEIRVSSDR
Second: DDEAMKQFRHWVEAYTTGDSQRLRELVDPNATVRVGDKTYTGMEDIAKNIHQQVRRQRFHVELKRVNNQPNRIEVDLDVTFNVNGKPIRIRLRMQAEMHNGRFKYIEVRFDPDEQRKLES
The protease stability score of the first is lower: 0.622 for the first, 0.861 for the second.

Compared with “DDEANKTAHELVRILQTGDDESFEKMVDPNVKVVIGDRTFKGSSEVRDYLRKRKENIHEDLQVKHVSASGNKAHLDLRFRNDKNGRPQERRLELDVVFHNGKVKNVVYHWDG”, “DDEANRVARHFVKALRKGDPDRLREMVDPNAKVVVGDQSWHGRDSLHHILEREIKEIRISIKDVKFQDQGDKANVEMRVESKHNGQPSESSSSVIVVVRNGRIQEIDMKTSG” is lower in protease stability score: 1.39 for the first, 0.291 for the second.

Compared with “DDEANTVFREQLHQLEEGNHKEVAKNFDPNVRVSVGDRSIHGSEEVNTRIRRQAHESRIQVDHMSDDNSNGRVTMSADQVVNENGKPSTHRYKLTARVHNGKVKSMVITRDG”, “DDEAQKLAEDYLTALQNNNPDKVIELLDPNARAEYGDKTYHGREQIHHFLRQFHKQARLQFTSYDVEVKNGQARLHMRVQVNHNGEPSQYEASIRISVHNGRMKEVQLQWSN” is higher in protease stability score: -0.575 for the first, 1.58 for the second.

Compared with “DDEAQRIVHKFVRAMQTNDPDSVEKLLDKNARIEYGDKTIHGNSQAREEVEKTKNQARFQIDSYRVQEEPGRAVLDQKVTFRINGQPDQMRHTLYFDFHNGRVTNLHMHIDEDDYQRHRG”, “DDEAQRVFEDWLENVKKGDEDHAVQLADPNADFVIGDKTYHGREQLKREIKHERDRLRREMRIQDFDDQPPRIDIKFEFTNQHNGKPSSDTAVMKLQMHNGDVQALVVTQHR” is lower in protease stability score: -0.019 for the first, -0.302 for the second.

First: DDEARKRIRTYWELYNQGNESKLEEMVDKDVRFEVGDKTIEGRRQVSTQLHREVREADVRVDIESIHVTGNKVDVEFRHSRDHNGQPETDQQRAEFNMDNGKIQSVVHRKDG
Second: DDEARNLVSEWLKAVETGDPDRVSQNMDPNASYHIGEWNVTGRETVNKLLDDVKTRLRVQFNIQHLDANGDTVDLRAMVLYEHNGKPDTKVYHFKFQQHNGKLVDVRATEDG
The protease stability score of the first is lower: -0.204 for the first, 0.736 for the second.

Going from “DDEARRVAETVMTAVSRGDEEKVKEMFDPNARFRVGNKEISGRENYADWLRKLQEHARVDVSDVKAKDQGDEVTAKVRFVLSVDGTPHTMNVDVHFSVDNGKIIDYKQRFDEDDLRRILK” to “DDEAVRAAKRAFEAWIENDPEKMKHQVDENAHLHYGDKEVHGREDANRQVHEDERQMRIELRSVTFQHHNGRAKIDMKYVLDHNGKPETRKFDATAEARNGKITKMSIDVHQ”, the protease stability score rises from -0.155 to -0.077.

Going from “DDEAVRAMKRWMDALKTGDPDHLKNNIDPNANIDVGDKRVHGREQIMTMVEKELHEIKITITSINFEDHGDKAVVIINYIRDHNGRPQSNRATLEAEVHNGRIKELKMKDDK” to “DDEAVRQIQTMVRNQNTGDPDKVAEQMDPNVQVDYGDTNLQGREHVHHWLEELKRQARFELTSVKAESQGDNIHVQVDRKVNVNGQPRRDEMHFEVRVHNGRIRSVDIQFDPDKYRQIMS”, the protease stability score falls from 0.468 to -0.28.

Compared with “DDEDADKAQRILETGNPDEMDKLLDKDVRVVVGDKEYKGREQVSEFFRRLLEQVDTITFLSVEIHNGTVQARVLVNVNGHNVDVVFQFVVHNGKLKHAKVEARNEEEQKKLDRALS”, “DDEDADRMVKLIRTNDPETFARQMDPNARVEVGDKKVHGREEALKLLSELYNQADHFQVKSISRHNGRVTVDAILVVNGRTMRARIEVVVHNGRVKSARVKFTNPEDQKQMRRNVQ” is lower in protease stability score: 1.55 for the first, -0.185 for the second.

First: DDEDAHRVADDANKALERGDERRLKELFDKDVRLHYGDKHVRGREEFEDWVQEWLRTVDKIRVEDYKVHDGVVRIRIRVDINGKDVSQTIDLDVKNGTIVNVVIKDN
Second: DDEDAKHLMQVLQNGDEDRFAELVDENAHQTIGDKTIHGRSEFDRIHEKLKKRIDNFRVNDYRIDNGSVNADVSANVNGQKIRFKYQAHVTNGHIKEMRFQATDPRQEDKWHEMQK
The protease stability score of the first is higher: 1.43 for the first, -0.031 for the second.

Compared with “DDEDAKRWEKFLKLQQEGNDSEMRKLVDENASFDVGNKHYSGMTTMAHELVRHAHDIRLEYKDVKIDVSGEQIYVTMEVTVNINGQPVRYTNVLEVTMHNGKVKTATNRIPEDVEREIRQ”, “DDEDDKRLADEFNTAVKQGDEDQLKNLMDEDATAEIGDKQLTGRENAAKHLVTLARHADHIQVNSVRVHDGRIRIDMRMIFNGQDHHYDIKIEVHNGRIKRMTVRNK” is higher in protease stability score: 0.034 for the first, 1.6 for the second.

Going from “DDEDEHKFATRMAEILHTGDPDRFQEQVDENVEARYGDKEYHGDEQAKTAFKHVVERVDTVEIKHMDAKNGKVSVHFVLDYDGEKQHVTLNVELHNGKAQRVEFQTQ” to “DDEDFKKFKELVETGDWSSLRKQADKNVRQRVGDKQIHGKEEFSRLLKHLQDQIDHVEIKHMQDEPNHLRVDVVWNINGVRVRFQYIVELSNGHIKYIKIDVTDENKLTKLQDLLQ”, the protease stability score rises from 0.144 to 0.491.

Compared with “DDEDKAREFQRHLLRLVRTNNEKDLHNMADPNVKVVIGDKVYSGRDDVAKAHAELRRNVDHINLEIKSVSHKNGRMKVEAEVIYDHNGKKDKRTMTAVIDRHNGKNVLVHMNIQ”, “DDEDNKRKAEEFVRLMHTGDEERIKELFDPNVKAVIGDKEYHGRDTVADWARRLREQADHFDVHRMTAQGDRVHVDMFVTHNGRTKRVVIVLKYHNGRVEEIKVQDG” is higher in protease stability score: 1.65 for the first, 2.28 for the second.

First: DDEDQKSTAEEIAKALQTGDKDKVTELFDEDARLKIGDTEFHGREQVSRAVHEIKTRVDHMELKDMEFTGDHVRIVYIANVDGHHATFVAHVVLNNGTAKSMSLSVRDERDKESVDK
Second: DDEDQRDQVRRLSKQMQTGDPNKVRQLLDPNAEVHIGDTTVHGREEVMRSQDKLRKRIDHFEMQDMKVDGESVVAHAVFRVDGKDITLEVRARYTNGRVKKMSFNPEAITRIRS
The protease stability score of the first is higher: 0.276 for the first, 0.127 for the second.

Compared with “DDEDRKKADEMLKALKHGDPDRVRELMDPNAKAVYGDKRIRGRDDFVEDMFRKQREIKIDMKIEEFRVNGNHAVFTVDVIEDKDGRPKRFKARVVITLHNGKIIDIKVEEEH”, “DDEDVNRHAESISRALERGDEERLLELLDENVTVEYGDKRVHGREEIERFLREFHRHADHIKVDRVKARGNKVRIRAVNDYDGRKVDYVFHFQFENGRVRKVKIEEK” is higher in protease stability score: 1.25 for the first, 1.29 for the second.

Going from “DDEDWHRLAERLFTALRTGDWKELLKMMDPNVNINIGDQTYHGRKDLKNWAQHMREEVDHVEIKSIRIQGNKIVLDITYVTNGQRQNVIFVFSIHNGKVKHVHAKTK” to “DDEEADKIVEELVKAMEHNDEKHFMELVDPNAKVRYGDTEYHGEDQIQTMFREIVEQADTVQVRSYRVENGEARVEANFRVNGRNAIVTMSATFHNGRVQSLRLHARDEEDRNKLDN”, the protease stability score falls from 1.14 to 0.999.

First: DDEEAKRVAEEVIKAMQKGDEEHFDRLVDPDVRLNVGDKVLHGRRDLRRWVKEVADKADHVQVDDVKVNNGTAKIRFRIDINGQTEEVIMHIHVTNGEVKSMRVQRT
Second: DDEEALKVIHHFIEVMMSGDEETARRLADKNVEAHYGDRTYHGSEEAVRALIEWARSVDNMRIDSVTQEGNEVKVHVVAHFDGRRVEVDIVIEAHNGKINFVTINPDDIRRMKQ
The protease stability score of the first is higher: 1.43 for the first, 0.831 for the second.

Compared with “DDEEARDIIRLMRHGNFDNIVKQMDPNVTLRYGNNTFHGRERAKHAAQRLKTHIDHVHLKDYKVHGDKIVIDMVYNVNGKHYEVRVVMHIHNGRIQKVQWDFRDDRDETDAEKRLS”, “DDEEARHRLSRISKMLEENDPQRFSNQADEDVRVDIGDKEIHGKEEVARQLTEWRKQVDHVRVTSVEVQGDHASVQFRADVNGRHRVLTLYMKWTNGRVKEMHIKEG” is lower in protease stability score: 1.28 for the first, 0.857 for the second.

Compared with “DDEEDHRVARLASTALQTGDPNQFKNLVDEDVKADVGDKTYHGHEQVMEMFKKFVDQVDHIKVKRVEVDGETARVDAEADINGRTKKIVLDVQAHNGHIKRVQMETS”, “DDEEDKTLNQKAREALTDNDPDQMMNLFDKDANVDVGEKRVHGREQLRRYMQDLHRMVDHVQVDSVKVDGEKLEFKVTLQYNGRRLKVVFRINYHDGRAKNMHIEFTDEKTLKQFEK” is higher in protease stability score: 0.39 for the first, 0.882 for the second.

Compared with “DDEEHRRILERFVRAFQTGDEDDLRNLADPNAKAQVGDKQVHGMDKFATHIRELVDRIDHIDVKSLTASGNTLHARIKFRVNGHDVTVVMRIQVHNGKLKRIEIDPEVVRQIEG”, “DDEEHVEEMMRRQQNNYKHGDFEELARQFDPNATVNVGDKTYHGREQIRDWYRKRKEDVDSMDLQVQHFSVDNGRIRIQATERQHFNGQDDSTHFQAEARKHGDKAKLKHFRQQ” is lower in protease stability score: 1.22 for the first, -0.052 for the second.

First: DDEEIKRLVKKAAHAFVDNDPDQFIRLLRDDVRARYGDKEVRGKESIKKQLQHWIHRIDHVEVKSFRAHGNSAEAHIVAIINGRTFDVHMDITFDNGRAHTVVFDVRSEEEFKEAMT
Second: DDEEKHKLADEVLHILRTGDHDSMARLADENAKAEIGDSRFHGRDHIRKLVKEFRDTADHIRVIDYRVKGDKIVLRMEFVFNGKTSEVNVVMRFHNGRIKDIEVDPTQVRQMEK
The protease stability score of the first is higher: 1.49 for the first, 1.03 for the second.

Going from “DDEEKKELADEIAQVIRTGDPKRMVEMVDENATAQVGDQKVHGRENIDKMMQNIRRTADHIRIEHVQVHGEEIRIKAKFHINGHTTTWVFSAEVHNGRIQRASLDRR” to “DDEELKRQAEEFLKNVKTGNHQELVKQMDPNVKVDVGDKRLQGRETAAHWFVKLVEQVDDFHVQTFDVHGETLEMHFVMEINGHRLQMVLRAEVHNGHIQEMSIDYRDPDRLRKVLS”, the protease stability score falls from 1 to 0.392.

Going from “DDEELQELVKVIQDNDKDRWRENIDKDARVRYGDKQWEGRNEVDKLMRELLEKADHIQFNSIHVQGNSIVVDVNINVNGKELDVIIEMEVRDGRIKHVKFQWRNEELHRIMDEILS” to “DDEEMTQLLRRILKALEKNDEDLYNQNFDEDVKINVGDKRYNGREDASKLMKTWNKQIDHFQVNDYTVSGEQLEMNITFQVDGRNVSFNVTATAKNGRVKEQTFDPSAMRKARS”, the protease stability score falls from 0.879 to -0.077.

First: DDEENKKINEQLKTGDPQTFVDQADENARFRIGDKDFQGREDAKKIADLRKNRVDHIRYREVHFEGDKFVLDAVATFNGRRIKFVVHVTFHNGRLKYYRIKVTNEEVRRQLDELNS
Second: DDEEQKERAEEIIKAIQTGDPQQFNRQADPNVEVKIGDTNVHGRENAARNIAERVQRADHIQVETMDVDGNNVVIDMVIQHNGRTKRFIVTLHFQNGRVKKMSIEDS
The protease stability score of the first is higher: 0.8 for the first, 0.459 for the second.

Compared with “DDEEQRKLAKEFIDLLRTGDEEHIAHQADKDVTFQIGDKRYTGQEELLKYMKHLVDRVDHIEVEEVDVRGNKVNVTVVVRYNGKRVTLNFDLEFSNGRLIHMSVDPDQQRQLDG”, “DDEERAEQFFRDIVEAIRTNDEERLRHLFDENAHAQVGDKTLHGREQIVKEIVSMAQSADHVSFQLRDLSVDGETITFYFKVQYTRNGRQTSKDVIIVARQSGDKLSVKTEVDS” is higher in protease stability score: 1.18 for the first, 1.4 for the second.

— the NTF2 design screens of Basanta et al. (2020)
